Assay results from article PMC13216289.
Changes are numbered by the printed parent chain.

B1: Ab17 (antibody, V domains shown)
VH: QVQLRESGPSSLKPSQTLSLTCAVSGFSLSTYAVGWVRQAPGKALEWVGDITSSGDTFYNPALKSRFSITKDNSKNQVSLSVGSVTPEDTATFYCTRLTCGDDCSTAWHNFDAWGQGLLVTVSS
VL: SYELTQPTSVSVALGQTAKITCSGDLLDVQYTQWYQQKPGQGPVRVIYKDSERPSGISDRFSGSSSGKTATLIISGAQTEDEADYYCQSTDSSQYGIFGRGTTLTVL
B2: Ab49 (antibody, V domains shown)
VH: QVQLRESGPSLVKPSQTLSLTCTVSGFSLTNYAVGWVRQAPGKAIQSLSIISTTGDTYYNPALKSRLSITKDNSKSQVSLSVSSVAPEDTATYYCVKFCGNADSAGHGWGCDYGDNENWGQGLLVTVSS
VL: B1 VL with V29E, I73T, T90F, D91Y, Q94T, Y95D, G96P, I97V, R100S

Target: FMDV C/PHI/3/1994 virus (Foot-and-mouth disease virus C/PHI/3/1994)

Binder	VNT: minimum antibody concentration that neutralises C/PHI/3/1994 virus
B1	213 nM
B2	1150 nM
